Measured values: patent US10646600B2, “HER2 polypeptides useful for imaging and monitoring tumors and cancers” (GE HEALTHCARE LIMITED, priority 2013, dated 2020)
“Also recorded” adds a separate entry of the source.

What was measured:
Format in all cases: in vivo, mice
MCF7-HER2 xenografts = assay: PET-CT imaging and kinetic modeling, MCF7-HER2 xenografts
Description: (§1) Mice were anesthetized through isoflurane inhalation and scanned on a dedicated small animal PET-CT scanner (Siemens Multimodality Inveon, Erlangen, Germany). Low dose CT scans were first acquired (80 kVp, 0.5 mA, 220 degree rotation, 600 ms per degree exposure time, 80 μm reconstruction pixel size) for PET attenuation correction and to obtain an anatomical reference. PET images were acquired following a bolus i.v. injection of approximately 3.7 MBq [^18F]GE-226 in the tail vein. Dynamic emission scans were acquired in list mode format over 60 minutes. The acquired data were sorted into 0.5-mm sinogram bins and 19 time frames for image reconstruction by filtered back projection (4×15 seconds and 4×60 seconds followed by 11×300 seconds). The Siemens Inveon Research Workplace software was used for visualization of radiotracer uptake. 30 to 60-minute cumulative images of the dynamic data were employed to define 3-dimensional (3D) regions of interest (ROI). […] The count densities were averaged for all ROIs at each time point to obtain time versus radioactivity curves (TAC). Tumor TACs were normalized to injected dose measured by a VDC-304 dose calibrator (Veenstra Instruments, Joure, Netherlands) and normalized uptake was expressed as percentage injected dose per mL tissue (NUV; % ID/mL). […]

MDA-MB-361 xenografts = assay: PET-CT imaging and kinetic modeling, MDA-MB-361 xenografts
Description: as §1

Biodistribution, tissues = assay: Biodistribution, tissues
Description: Mice were sacrificed at different time points by exsanguination.

[1] = two-tissue irreversible compartmental model

[^18F]GE-226: HER2-binding 18F-radiolabelled Affibody molecule ZHER2:2891
NUV60 (MCF7-HER2 xenografts; PET, 60 minutes): 10.9±1.5 % ID/mL
Ki (net irreversible uptake rate) (MCF7-HER2 xenografts; [1]): 0.015±0.0035 mL/cm^3/min
NUV60 (MDA-MB-361 xenografts; PET, 60 minutes): 18.2±3.4 % ID/mL
Ki (net irreversible uptake rate) (MDA-MB-361 xenografts; [1]): 0.025±0.0052 mL/cm^3/min
Tissue uptake, Blood (Biodistribution, tissues; 5 min): 0.82 ± 0.83 % ID/g tissue
Tissue uptake, Bone (Biodistribution, tissues; 5 min): 1.20 ± 1.08 % ID/g tissue
Tissue uptake, Brain (Biodistribution, tissues; 5 min): 0.33 ± 0.35 % ID/g tissue
Tissue uptake, Caecum empty (Biodistribution, tissues; 5 min): 3.24 ± 3.76 % ID/g tissue
Tissue uptake, Caecum full (Biodistribution, tissues; 5 min): 0.97 ± 1.09 % ID/g tissue
Tissue uptake, Colon empty (Biodistribution, tissues; 5 min): 2.68 ± 2.44 % ID/g tissue
Tissue uptake, Colon full (Biodistribution, tissues; 5 min): 2.40 ± 2.53 % ID/g tissue
Tissue uptake, Duodenum empty (Biodistribution, tissues; 5 min): 3.21 ± 3.50 % ID/g tissue
Tissue uptake, Duodenum full (Biodistribution, tissues; 5 min): 2.55 ± 2.17 % ID/g tissue
Tissue uptake, Gallbladder (Biodistribution, tissues; 5 min): 3.22 ± 3.29 % ID/g tissue
Tissue uptake, Heart (Biodistribution, tissues; 5 min): 3.10 ± 2.83 % ID/g tissue
Tissue uptake, Jejunum empty (Biodistribution, tissues; 5 min): 2.48 ± 2.81 % ID/g tissue
Tissue uptake, Jejunum full (Biodistribution, tissues; 5 min): 1.68 ± 1.38 % ID/g tissue
Tissue uptake, Kidney (Biodistribution, tissues; 5 min): 15.02 ± 6.99 % ID/g tissue
Tissue uptake, Liver (Biodistribution, tissues; 5 min): 2.90 ± 2.96 % ID/g tissue
Tissue uptake, Lung (Biodistribution, tissues; 5 min): 3.90 ± 3.84 % ID/g tissue
Tissue uptake, Muscle (Biodistribution, tissues; 5 min): 0.88 ± 0.81 % ID/g tissue
Tissue uptake, Plasma (Biodistribution, tissues; 5 min): 12.71 ± 14.90 % ID/g tissue
Tissue uptake, Spleen (Biodistribution, tissues; 5 min): 3.18 ± 2.66 % ID/g tissue
Tissue uptake, Stomach empty (Biodistribution, tissues; 5 min): 2.02 ± 1.62 % ID/g tissue
Tissue uptake, Stomach full (Biodistribution, tissues; 5 min): 1.47 ± 1.85 % ID/g tissue
Tissue uptake, Urine (Biodistribution, tissues; 5 min): 148.33 ± 127.65 % ID/g tissue
Tissue uptake, Blood (Biodistribution, tissues; 15 min): 2.00 ± 0.75 % ID/g tissue
Tissue uptake, Bone (Biodistribution, tissues; 15 min): 3.05 ± 0.88 % ID/g tissue
Tissue uptake, Brain (Biodistribution, tissues; 15 min): 0.34 ± 0.11 % ID/g tissue
Tissue uptake, Caecum empty (Biodistribution, tissues; 15 min): 4.94 ± 2.84 % ID/g tissue
Tissue uptake, Caecum full (Biodistribution, tissues; 15 min): 1.68 ± 0.85 % ID/g tissue
Tissue uptake, Colon empty (Biodistribution, tissues; 15 min): 5.78 ± 2.99 % ID/g tissue
Tissue uptake, Colon full (Biodistribution, tissues; 15 min): 3.43 ± 1.89 % ID/g tissue
Tissue uptake, Duodenum empty (Biodistribution, tissues; 15 min): 5.16 ± 2.36 % ID/g tissue
Tissue uptake, Duodenum full (Biodistribution, tissues; 15 min): 4.07 ± 1.48 % ID/g tissue
Tissue uptake, Gallbladder (Biodistribution, tissues; 15 min): 5.10 ± 1.77 % ID/g tissue
Tissue uptake, Heart (Biodistribution, tissues; 15 min): 3.52 ± 1.19 % ID/g tissue
Tissue uptake, Jejunum empty (Biodistribution, tissues; 15 min): 4.92 ± 1.33 % ID/g tissue
Tissue uptake, Jejunum full (Biodistribution, tissues; 15 min): 2.71 ± 1.01 % ID/g tissue
Tissue uptake, Kidney (Biodistribution, tissues; 15 min): 65.82 ± 18.48 % ID/g tissue
Tissue uptake, Liver (Biodistribution, tissues; 15 min): 4.58 ± 1.77 % ID/g tissue
Tissue uptake, Lung (Biodistribution, tissues; 15 min): 5.99 ± 2.10 % ID/g tissue
Tissue uptake, Muscle (Biodistribution, tissues; 15 min): 2.05 ± 0.86 % ID/g tissue
Tissue uptake, Plasma (Biodistribution, tissues; 15 min): 9.41 ± 3.75 % ID/g tissue
Tissue uptake, Spleen (Biodistribution, tissues; 15 min): 3.94 ± 3.24 % ID/g tissue
Tissue uptake, Stomach empty (Biodistribution, tissues; 15 min): 3.75 ± 1.38 % ID/g tissue
Tissue uptake, Stomach full (Biodistribution, tissues; 15 min): 2.68 ± 1.04 % ID/g tissue
Tissue uptake, Urine (Biodistribution, tissues; 15 min): 283.73 ± 243.00 % ID/g tissue
Tissue uptake, Blood (Biodistribution, tissues; 30 min): 0.53 ± 0.35 % ID/g tissue
Tissue uptake, Bone (Biodistribution, tissues; 30 min): 1.59 ± 0.94 % ID/g tissue
Tissue uptake, Brain (Biodistribution, tissues; 30 min): 0.13 ± 0.08 % ID/g tissue
Tissue uptake, Caecum empty (Biodistribution, tissues; 30 min): 1.92 ± 0.89 % ID/g tissue
Tissue uptake, Caecum full (Biodistribution, tissues; 30 min): 0.60 ± 0.27 % ID/g tissue
Tissue uptake, Colon empty (Biodistribution, tissues; 30 min): 1.80 ± 0.94 % ID/g tissue
Tissue uptake, Colon full (Biodistribution, tissues; 30 min): 1.00 ± 0.59 % ID/g tissue
Tissue uptake, Duodenum empty (Biodistribution, tissues; 30 min): 2.91 ± 1.27 % ID/g tissue
Tissue uptake, Duodenum full (Biodistribution, tissues; 30 min): 2.87 ± 1.18 % ID/g tissue
Tissue uptake, Gallbladder (Biodistribution, tissues; 30 min): 2.74 ± 1.06 % ID/g tissue
Tissue uptake, Heart (Biodistribution, tissues; 30 min): 1.27 ± 0.60 % ID/g tissue
Tissue uptake, Jejunum empty (Biodistribution, tissues; 30 min): 1.87 ± 1.12 % ID/g tissue
Tissue uptake, Jejunum full (Biodistribution, tissues; 30 min): 1.73 ± 1.25 % ID/g tissue
Tissue uptake, Kidney (Biodistribution, tissues; 30 min): 23.54 ± 11.70 % ID/g tissue
Tissue uptake, Liver (Biodistribution, tissues; 30 min): 2.27 ± 1.23 % ID/g tissue
Tissue uptake, Lung (Biodistribution, tissues; 30 min): 3.15 ± 1.84 % ID/g tissue
Tissue uptake, Muscle (Biodistribution, tissues; 30 min): 0.78 ± 0.48 % ID/g tissue
Tissue uptake, Plasma (Biodistribution, tissues; 30 min): 4.10 ± 2.23 % ID/g tissue
Tissue uptake, Spleen (Biodistribution, tissues; 30 min): 1.71 ± 0.90 % ID/g tissue
Tissue uptake, Stomach empty (Biodistribution, tissues; 30 min): 1.56 ± 0.86 % ID/g tissue
Tissue uptake, Stomach full (Biodistribution, tissues; 30 min): 1.28 ± 0.92 % ID/g tissue
Tissue uptake, Urine (Biodistribution, tissues; 30 min): 438.65 ± 219.01 % ID/g tissue
Tissue uptake, Blood (Biodistribution, tissues; 60 min): 0.32 ± 0.26 % ID/g tissue
Tissue uptake, Bone (Biodistribution, tissues; 60 min): 0.68 ± 0.40 % ID/g tissue
Tissue uptake, Brain (Biodistribution, tissues; 60 min): 0.10 ± 0.07 % ID/g tissue
Tissue uptake, Caecum empty (Biodistribution, tissues; 60 min): 0.87 ± 0.53 % ID/g tissue
Tissue uptake, Caecum full (Biodistribution, tissues; 60 min): 0.36 ± 0.22 % ID/g tissue
Tissue uptake, Colon empty (Biodistribution, tissues; 60 min): 1.25 ± 0.94 % ID/g tissue
Tissue uptake, Colon full (Biodistribution, tissues; 60 min): 0.84 ± 0.59 % ID/g tissue
Tissue uptake, Duodenum empty (Biodistribution, tissues; 60 min): 2.29 ± 2.29 % ID/g tissue
Tissue uptake, Duodenum full (Biodistribution, tissues; 60 min): 1.53 ± 0.59 % ID/g tissue
Tissue uptake, Gallbladder (Biodistribution, tissues; 60 min): 3.92 ± 3.29 % ID/g tissue
Tissue uptake, Heart (Biodistribution, tissues; 60 min): 0.64 ± 0.40 % ID/g tissue
Tissue uptake, Jejunum empty (Biodistribution, tissues; 60 min): 0.86 ± 0.46 % ID/g tissue
Tissue uptake, Jejunum full (Biodistribution, tissues; 60 min): 0.99 ± 0.39 % ID/g tissue
Tissue uptake, Kidney (Biodistribution, tissues; 60 min): 11.94 ± 10.30 % ID/g tissue
Tissue uptake, Liver (Biodistribution, tissues; 60 min): 1.64 ± 1.49 % ID/g tissue
Tissue uptake, Lung (Biodistribution, tissues; 60 min): 1.81 ± 1.32 % ID/g tissue
Tissue uptake, Muscle (Biodistribution, tissues; 60 min): 0.50 ± 0.45 % ID/g tissue
Tissue uptake, Plasma (Biodistribution, tissues; 60 min): 1.76 ± 1.06 % ID/g tissue
Tissue uptake, Spleen (Biodistribution, tissues; 60 min): 0.88 ± 0.56 % ID/g tissue
Tissue uptake, Stomach empty (Biodistribution, tissues; 60 min): 0.86 ± 0.72 % ID/g tissue
Tissue uptake, Stomach full (Biodistribution, tissues; 60 min): 0.53 ± 0.29 % ID/g tissue
Tissue uptake, Urine (Biodistribution, tissues; 60 min): 535.62 ± 303.04 % ID/g tissue
kidney radioactivity levels versus tumors (Biodistribution, tissues; 60 min): comparable to levels in tumors
excretion / clearance (Biodistribution, tissues; mouse, in vivo): predominately and rapidly excreted via the renal route; also recorded: rapid renal clearance
uptake in other organs, including the liver (Biodistribution, tissues; mouse, in vivo): negligible
